# B1: CHCHD3 (other, human, UniProt Q9NX63 2-227, looked up)
# chain: GGTTSTRRVTFEADENENITVVKGIRLSENVIDRMKESSPSGSKSQRYSGAYGASVSDEELKRRVAEELALEQAKKESEDQKRLKQAKELDRERAAANEQLTRAILRERICSEEERAKAKHLARQLEEKDRVLKKQDAFYKEQLARLEERSSEFYRVTTEQYQKAAEEVEAKFKRYESHPVCADLQAKILQCYRENTHQTLKCSALATQYMHCVNHAKQSMLEKGG
# notes: also called a MIA40 family member
# Molecular target: T1, endogenous AIF (apoptosis inducing factor) contained in human cell lysates (human, UniProt O95831 55-613, limits assumed)
# T1 construct: Endogenous protein in cell lysate; also called AIF contained in the lysate of U2OS cells
# Test: co-immunoprecipitation from human cancer cell lysates
# T1 sequence (O95831 55-613 limits assumed): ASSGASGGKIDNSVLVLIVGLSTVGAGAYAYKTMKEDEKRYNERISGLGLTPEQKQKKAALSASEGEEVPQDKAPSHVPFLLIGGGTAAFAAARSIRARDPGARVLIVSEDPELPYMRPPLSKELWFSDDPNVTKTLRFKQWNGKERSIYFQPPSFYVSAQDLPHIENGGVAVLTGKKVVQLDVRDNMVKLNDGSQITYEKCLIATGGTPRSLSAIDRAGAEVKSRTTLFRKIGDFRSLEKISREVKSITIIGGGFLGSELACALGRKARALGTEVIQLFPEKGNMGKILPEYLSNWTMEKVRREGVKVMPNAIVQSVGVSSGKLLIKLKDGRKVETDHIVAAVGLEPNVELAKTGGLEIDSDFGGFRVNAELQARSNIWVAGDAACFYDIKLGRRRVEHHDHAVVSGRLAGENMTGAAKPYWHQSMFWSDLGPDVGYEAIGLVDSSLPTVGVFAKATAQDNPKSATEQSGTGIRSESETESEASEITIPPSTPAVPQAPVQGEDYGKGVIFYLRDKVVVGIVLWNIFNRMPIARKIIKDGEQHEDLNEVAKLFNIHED
binder,measurement,value
B1,binding result,no binding
